Measurements reported in patent US20240240160A1, “NOVEL OLIVETOL SYNTHASES FOR C[…]” (priority 2021, published 2024).

System: E. coli derivative strain which overexpressed an acyl-CoA synthetase (fadD) gene and expressed an olivetolic acid cyclase (OAC) from Cannabis sativa
Assay: OL, OLA and PDAL production in E. coli from plasmid-expressed Type-III PKS genes
Format: cell-based
Settings: gene on plasmid; for Total: OL + OLA + PDAL; for OL / OLA / PDAL: constitutive promoter, culture spiked with 4 mM hexanoic acid
Experimental: To test olivetolic acid production in E. coli, strains comprising a putative OLS gene and an OAC gene from C. sativa were inoculated in multi-well plates containing LB supplemented with 1% glucose and appropriate concentrations of antibiotics. After 6 hours of cultivation at 32° C., the cells were transferred with a 10% inoculum to a P-limited seed medium (see Table 2) and cultivated for ˜18 hours at 32° ° C. to reach an OD of 2.0-4.0. The cultures were transferred with a 20% inoculum in a P-minimal medium (see Table 3) supplemented with 2% glucose and appropriate concentrations of antibiotics. After 3 hours of cultivation at 32° C., the culture was spiked with 4 mM hexanoic acid (˜OD 1.5-2.0). The resulting cultures were then harvested at either 3 hours or 21 hours post hexanoic acid spike; a final OD was taken. 300 μL of butyl acetate containing 500 mg/L undecanoic acid was added to each multi-well plate. The plates were then vortexed for 30 minutes at 1500 rpm and centrifuged for 10 minutes at 4500 rpm. 50 μL of organic layer was transferred to a 96-well plate and derivatized with 50 μL of N,O-Bis(trimethylsilyl)trifluoroacetamide (BSTFA). The plate was then incubated at room temperature for 2 hours to allow for complete derivatization. The samples were then run on GC-FID for analytical quantification of olivetolic acid (OLA), olivetol (OL), PDAL, and hexanoic acid.
Olivetol, PDAL, OLA, HTAL, CBGA and combinations thereof were analyzed by LCMS or LCMS/MS methods using C18 reversed phase chromatography coupled to either EXACTIVE™ (ThermoFisher) or QTRAP® 4500 (Sciex) mass spectrometers.
For reversed phase LCMS, compounds were identified by their LC retention times and MRM transitions specific to the compounds. LCMS/MS analysis was conducted on a Shimadzu UHPLC system coupled with AB Sciex QTRAP 4500 mass spectrometer. Agilent Eclipse XDB C18 column (4.6×3.0 mm, 1.8 μm) was used with a 1-min gradient elution at 1 mL/min using water containing 0.1% ammonia acetate as mobile phase A and 90% methanol containing 0.1% ammonia acetate as mobile phase B. The LC column temperature was maintained at 45° C. Negative ionization mode was used for all the analytes.
The genes for 20 Type-III PKS enzymes were codon optimized for E. coli and cloned under control of a constitutive promoter into an expression vector (p15a replicon, carbenicillin resistance marker). The 20 plasmids were transformed into an E. coli derivative strain which overexpressed an acyl-CoA synthetase (fadD) gene and expressed an olivetolic acid cyclase (OAC) from Cannabis sativa.
The in vivo assay procedure and analytical methods were performed as described above.

| Molecule | Total [µM] | OL [µM] | OLA [µM] | PDAL [µM] | levels of OLA relative to the E. coli strain with OLS from C. sativa |
| --- | --- | --- | --- | --- | --- |
| PKA53998.1: Type-III PKS enzyme from Apostasia shenzhenica (protein, listed as Apostasia shenzhenica, (1)..(393) PKA53998.1) MPGLQIISKASSRAADGLAAILAIGRANPPNSMDQSSYPEFYFRVMDSDHLVDLKKKFQRICERTAIRKRHFVWNEELLRDNPCLRTFMDSSLNVRQKVAVAEIPKLGAAAAERAIEEWGQPRSGITHLIFCTTSGMDLPGADYQLTKILGLNADVQRVMLYQQGCFAGGTVLRLAKVLAESRKGARVLVVCAETTTVLIRAPSVEHQDDLVTQALFADGASALIVGADPVEEVNERPLFSIISASQVILPDSDGAIGGHLGEGGLTATLHRDVPLIISKNVSKCLEDAFSPLGISDWNSIFWAPHPGGRAILDQVEERVGLKPEKMWASRHVLAEYGNMSSVCVHFVLDEMRKRSAKEGKPTTGEGLEWGVLFGFGPGLTVETVVLRSHPIN | 1005 | 268 | 256 | 481 | – |
| CAA10514.1: Type-III PKS enzyme from Bromheadia finlaysoniana (protein, listed as Bromheadia finlaysoniana, (1)..(394) CAA10514.1) MASQVSPPSINMAPKADGFASILAIGRANPKNFIEQSTFPDFFFRVTNTEHMVDLKKKFQRICDKTSIRKRHFIWNEELLTANPSLCTFMGNSLNLRHEVAVREIPKLGAEAATKAIQEWGQPKSFITHLVFCTTSGMDLPGADYQLTQILGLNLDIERVMLHQQGCFLGGTTLRLAKYLAESRKGARVLVVCAETTTEFFRAPSEEHQEDLVTQSLFGDGASALIVGADPHEGARERASFILVSSSQVLLANSAHAITGHVSEGGIKATLHRDVPQIISNNLGKCLEEAFTPLGISDWNSIFWVLHPGGRAILDQVEEKMGLEPEKLLISRHVLLEYGNMSSVCVHFALDEMRKRSSNEGKATTGEGLEWGVLFGFGPGLTIETVVLRSVSIS | 61 | 0 | 0 | 61 | – |
| AFU07719.1: Type-III PKS enzyme from Paphiopedilum purpuratum (protein, listed as Paphiopedilum purpuratum, (1)..(394) AFU07719.1) MPGLENRKKVEAPKRAEGLATILAIGRANPPNDMEQSTFPDFYFRVTNSEHLVSLKKKFERICEKTAIRRRHFVWNEEILNANPCLRTHMEPSLNVRQKIAVAEIPKLGAEAASRAIEEWGQPKSHITHLIFCTTSGMDLPGADYKLTRILGLNPNVQRVMLYQQGCFAGGTVLRLAKCFAESQKGARVLVVCSETTTVLVRAPSEDYQDDLVTQALFADGASALIVGADPDEEAKEQPIFTIVSATQVILPDSDGAIGGHLGEGGLTATLHRDVPLIISKNVSKCLEEAFGPLGISDWNSIFWAPHPGGRAILDQVEERVGLKPEKLWASRHVLAEYGNMSSVCVHFVLDEIRKRSTKEGKTTTGEGFDWGVLFGFGPGLTVETVILRSVPLN | 1406 | 289 | 302 | 815 | – |
| AFU07718.1: Type-III PKS enzyme from Paphiopedilum micranthum (protein, listed as Paphiopedilum micranthum, (1)..(394) AFU07718.1) MPGLENRKKVEAPIRAEGLATIMAIGRANPPNAMEQSTFPDFYFRVTNSEHLVGLKKKFQRICEKTAIRRRHFVWNEEILNANPCLRTHMEPSLNVRQKIAVAEIPKMGAEAASRAIEEWGQSKSRITHLIFCTTSGMDLPGADYQLTRILGLNPNVQRVMLYQQGCFAGGTVLRLAKCLAESQKGARVLVVCSETTAVLVRAPSEEYHDDLVTQALFADGASALIVGADPDEEAKERPIFTIVSTTQVILPDSDGAIGGHLGEGGLTATLHRDVPLIISKNVSKCLEEAFTPLGISDWNSIFWAPHPGGRAILDQVEERASLKPEKLWASRHVLTEYGNMSSVCVHFVLDEIRKRSAKEGKATTGEGFDWGVLFGFGPGLTVETVVLRSVPLN | 948 | 159 | 152 | 638 | – |
| AHH25569.1: Type-III PKS enzyme from Bletilla striata (protein, listed as Bletilla striata, (1)..(390) AHH25569.1) MPSLDSIKKAPRADGIASILAIGRANPDNIIEQSAYPDFYFRVTNSEHLVDLKKKFQRICEKTAIRKRHFVWNEEFLTSNPSFSTFMDKSLYVRQEVAIREIPKLGAKAATKAIEDWGQPKSRISHLIFCTTSGMDLPGADYQLTQILGLNPNVERLMLYEQGCFAGGTTLRLAKCLAESRKGARVLVVCAETTTVLFRAPSEEHQDDLVTQALFADGASALIVGADPDEAADERASFVIVSTSQVLLPDTAGAIGGHVSEGGLLATLHRDVPQIVTKNVGKCLEEAFTPFGISDWNSIFWVPHPGGRAILDQVEERVGLKPEKLSVSRHVLAEYGNMSSVCVHFALDEMRKRSANEGKPTTGEGLEWGVLFGFGPGLTVETVVLRSVPL | 320 | 93 | 98 | 129 | – |
| XP_020591420.1: Type-III PKS enzyme from Phalaenopsis equestris (protein, listed as Phalaenopsis equestris, (1)..(387) XP_020591420.1) MPNMESIKKEDGLATIMAIGRALPPNSIDQNSFPDFYFRVHNSEHLMDLKNKFRRICERTAIRKRHFVWNEEVLKQNPCLRTFMEPSLNTRQEIVCSEIPKLGAEAARNAIREWGQPERSITHLIFCTTSGMNLPGADFEAAQILGLNHSVERVMLYQQGCFAGGTVLRLAKCLAESRRGARVLVICAESTTSLVRSPSREHQYDLIAQALFADGASALIIGTEPNAEAGERPIFSIFSTAQVTLPDSGDAIRGYLKEGGLIATLAKDVPLIISENIERCLQEAFGPLGISDWNSIFWAPHPGGRAILDGIEDKLGLKPEKLWAARHVLAEYGNMSSVCVHYILDEMRRRDVKNGKAPTGDGPEWGVLFGFGPGLTVETVVLRRLFL | 468 | 54 | 36 | 378 | – |
| AAX54693.1: Type-III PKS enzyme from Phalaenopsis hybrid cultivar (protein, Phalaenopsis hybrid cultivar; (1)..(390) AAX54693.1) MPTIESIKKAPRAHGFASILAIGKANPENFIEQCHYPDFYFRVTSSEHLVDLKEKFQRMCDRTAIRKRHFVWNEDLLTANPCLRTYMDKSLNIRQEVAIREIPKLGAEAATKAIQEWGQPKSSITHLIFCTTSGMDLPGADFQLTQILGLNPNVERVMLYQQGCFAGGTTLRLAKCLAESREGARVLVVCAETTTVVFRAPSEEHQDDLVTQALFADGASAVIVGVDPNEAAHERASFIIVSASQVLLPDSAGAIGGHVSEGGLTATLHRDVPQIVSKNVGKCLEEAFTPFGISDWNSIFWVPHAGGRAILDQVEERVGLKPEKLSVSRHVLAEYGNMSSVCVHFALDEMRKKSAKEAKATTGEGLEWGVLFGFGPGLTVETVVLHSVPI | 1874 | 606 | 653 | 615 | over two-fold |
| XP_020704098.1: Type-III PKS enzyme from Dendrobium catenatum (protein, listed as Dendrobium catenatum, (1)..(390) XP_020704098.1) MPSLESIKKAPRADGFASILAIGRANPENFIEQSAYPDLFFRITNSEHLVDLKNKFKRICDKTAIRKRHFVWTEEFITANPCFSTFMDKSLNIRQEVAIREIPKLGAEAATKAIQEWGQPKSRITHLIFCTTSGMDLPGADYQLTQILGLNPNVERVMLYQQGCFAGGTTIRLAKCLAESRKGARVLVVCAETTTVLFRGPSEEHQDDLVTQALFADGASALIVGADPDEAADEHASFVIVSTSQVLLPDSAGAIGGHVSEGGLLATLHRDVPQIVSKNVGKCLEEAFTPLGISDWNSIFWVPHPGGRAILDQVEESVGLKPEKLFISRHVLAEYGNMSSVCVHFALDEMRKRSAKEGKATTGEGLEWGVLFGFGPGVTVETVILRSVPI | 1072 | 432 | 390 | 250 | – |
| XP_020704102.1: Type-III PKS enzyme from Dendrobium catenatum (protein, listed as Dendrobium catenatum, (1)..(388) XP_020704102.1) MPSLESIKKAPRADGFASILAIGRANPENFIEQSAYPDLFFRITKSEHLVDLKNKFKRICDKTAIRKRHFVWTEEFITANPCFSTFMEKSLNIRQEVAIREIPKLGAEAAAKAIQEWGQPKSRITHLIFCTRSGMGLPGPDYQLTQILGLNPNVERVMIYQQGCFAGGTTLRLAKCLAESHKGARVLVVCAETSTVLFRAPSMEHQEDLVTQALFADGASALIVGADPDETADEHASFVIVSTSQVLLPESAGAIGGHVSEGGFLPMIHRDVPQIVSKNIGKCLEEAFTPLGIMDWNSIFWVPHPGGRAILDQLDERVGLKPEKLFISRHVLKEYGNMSSASVHFALDEMRKWSAKEGTTGEGLEWGVLFGFGPGVTVDTVVLRSVPI | 148 | 26 | 19 | 102 | – |
